Experimental data reported in patent publication US10428149 (dated 2019).
Substitutions are numbered along the chain they refer to.

B1: scFvhu225-EHD2-scTRAIL3-FLVGGGPQRVA (antibody)
chain: DYKDDDDKGGGGSGTEVQLVESGGGLVQPGGSLRLSCAASGFSLTNYGVHWVRQAPGKGLEWLGVIWSGGNTDYNTPFTSRFTISRDNSKNTLYLQMNSLRAEDTAVYYCARALTYYDYEFAYWGQGTTVTVSSGGGGSGGGGSGGGGSDIQLTQSPSFLSASVGDRVTITCRASQSIGTNIHWYQQKPGKAPKLLIKYASESISGVPSRFSGSGSGTEFTLTISSLQPEDFATYYCQQNNNWPTTFGAGTKLEIKRAAAGGSGGDFTPPTVKILQSSCDGGGHFPPTIQLLCLVSGYTPGTINITWLEDGQVMDVDLSTASTTQEGELASTQSELTLSQKHWLSDRTYTCQVTYQGHTFEDSTKKCADSNGGSGGASSGGGPQRVAAHITGTRGRSNTLSSPNSKNEKALGRKINSWESSRSGHSFLSNLHLRNGELVIHEKGFYYIYSQTYFRFQEEIKENTKNDKQMVQYIYKYTSYPDPILLMKSARNSCWSKDAEYGLYSIYQGGIFELKENDRIFVSVTNEHLIDMDHEASFFGAFLVGGGPQRVAAHITGTRGRSNTLSSPNSKNEKALGRKINSWESSRSGHSFLSNLHLRNGELVIHEKGFYYIYSQTYFRFQEEIKENTKNDKQMVQYIYKYTSYPDPILLMKSARNSCWSKDAEYGLYSIYQGGIFELKENDRIFVSVTNEHLIDMDHEASFFGAFLVGGGPQRVAAHITGTRGRSNTLSSPNSKNEKALGRKINSWESSRSGHSFLSNLHLRNGELVIHEKGFYYIYSQTYFRFQEEIKENTKNDKQMVQYIYKYTSYPDPILLMKSARNSCWSKDAEYGLYSIYQGGIFELKENDRIFVSVTNEHLIDMDHEASFFGAFLVG
B2: Dbhu225-scTRAIL3-FLVGGGPQRVA (antibody)
chain: DYKDDDDKGGGGSGTEVQLVESGGGLVQPGGSLRLSCAASGFSLTNYGVHWVRQAPGKGLEWLGVIWSGGNTDYNTPFTSRFTISRDNSKNTLYLQMNSLRAEDTAVYYCARALTYYDYEFAYWGQGTTVTVSSGGGGSDIQLTQSPSFLSASVGDRVTITCRASQSIGTNIHWYQQKPGKAPKLLIKYASESISGVPSRFSGSGSGTEFTLTISSLQPEDFATYYCQQNNNWPTTFGAGTKLEIKRAAAGGSGGGPQRVAAHITGTRGRSNTLSSPNSKNEKALGRKINSWESSRSGHSFLSNLHLRNGELVIHEKGFYYIYSQTYFRFQEEIKENTKNDKQMVQYIYKYTSYPDPILLMKSARNSCWSKDAEYGLYSIYQGGIFELKENDRIFVSVTNEHLIDMDHEASFFGAFLVGGGPQRVAAHITGTRGRSNTLSSPNSKNEKALGRKINSWESSRSGHSFLSNLHLRNGELVIHEKGFYYIYSQTYFRFQEEIKENTKNDKQMVQYIYKYTSYPDPILLMKSARNSCWSKDAEYGLYSIYQGGIFELKENDRIFVSVTNEHLIDMDHEASFFGAFLVGGGPQRVAAHITGTRGRSNTLSSPNSKNEKALGRKINSWESSRSGHSFLSNLHLRNGELVIHEKGFYYIYSQTYFRFQEEIKENTKNDKQMVQYIYKYTSYPDPILLMKSARNSCWSKDAEYGLYSIYQGGIFELKENDRIFVSVTNEHLIDMDHEASFFGAFLVG
B3: dsDbhu225-scTRAIL3-FLVGGGPQRVA (antibody)
chain: B2 chain with G59C, A239C
B4: dsDb3M6-scTRAIL3-FLVGGGPQRVA (antibody)
chain: DYKDDDDKGGGGSGTEVQLLESGGGLVQPGGSLRLSCAASGFTFSHYVMAWVRQAPGKCLEWVSSISSSGGWTLYADSVKGRFTISRDNSKNTLYLQMNSLRAEDTAVYYCTRGLKMATIFDYWGQGTLVTVSSGGGGSQSALTQPASVSGSPGQSITISCTGTSSDVGSYNVVSWYQQHPGKAPKLIIYEVSQRPSGVSNRFSGSKSGNTASLTISGLQTEDEADYYCSSYAGSSIFVIFGCGTKVTVLAAAGGSGGGPQRVAAHITGTRGRSNTLSSPNSKNEKALGRKINSWESSRSGHSFLSNLHLRNGELVIHEKGFYYIYSQTYFRFQEEIKENTKNDKQMVQYIYKYTSYPDPILLMKSARNSCWSKDAEYGLYSIYQGGIFELKENDRIFVSVTNEHLIDMDHEASFFGAFLVGGGPQRVAAHITGTRGRSNTLSSPNSKNEKALGRKINSWESSRSGHSFLSNLHLRNGELVIHEKGFYYIYSQTYFRFQEEIKENTKNDKQMVQYIYKYTSYPDPILLMKSARNSCWSKDAEYGLYSIYQGGIFELKENDRIFVSVTNEHLIDMDHEASFFGAFLVGGGPQRVAAHITGTRGRSNTLSSPNSKNEKALGRKINSWESSRSGHSFLSNLHLRNGELVIHEKGFYYIYSQTYFRFQEEIKENTKNDKQMVQYIYKYTSYPDPILLMKSARNSCWSKDAEYGLYSIYQGGIFELKENDRIFVSVTNEHLIDMDHEASFFGAFLVG
B5: scFv3M6-EHD2-scTRAIL3-… (HER3 arm) (antibody)
chain: EVQLLESGGGLVQPGGSLRLSCAASGFTFSHYVMAWVRQAPGKGLEWVSSISSSGGWTLYADSVKGRFTISRDNSKNTLYLQMNSLRAEDTAVYYCTRGLKMATIFDYWGQGTLVTVSSGGGGSGGGGSGGGGSQSALTQPASVSGSPGQSITISCTGTSSDVGSYNVVSWYQQHPGKAPKLIIYEVSQRPSGVSNRFSGSKSGNTASLTISGLQTEDEADYYCSSYAGSSIFVIFGGGTKVTVLAAAGGSGGDFTPPTVKILQSSCDGGGHFPPTIQLLCLVSGYTPGTINITWLEDGQVMDVDLSTASTTQEGELASTQSELTLSQKHWLSDRTYTCQVTYQGHTFEDSTKKCADSN
B6: scFv3M6-Fc-scTRAIL3-… (HER3 arm) (antibody, V domains shown)
VH: EVQLLESGGGLVQPGGSLRLSCAASGFTFSHYVMAWVRQAPGKGLEWVSSISSSGGWTLYADSVKGRFTISRDNSKNTLYLQMNSLRAEDTAVYYCTRGLKMATIFDYWGQGTLVTVSS
VL: QSALTQPASVSGSPGQSITISCTGTSSDVGSYNVVSWYQQHPGKAPKLIIYEVSQRPSGVSNRFSGSKSGNTASLTISGLQTEDEADYYCSSYAGSSIFVIFGGGTKVTVL
B7: Db3M6-scTRAIL3-… (HER3 arm) (antibody, V domains shown)
VH: B6 VH
VL: B6 VL
B8: EHD2-scTRAIL3-FLVGGGPQRVA (designed binder)
chain 1: DFTPPTVKILQSSCDGGGHFPPTIQLLCLVSGYTPGTINITWLEDGQVMDVDLSTASTTQEGELASTQSELTLSQKHWLSDRTYTCQVTYQGHTFEDSTKKCADSN
chain 2: MDWTWRVFCLLAVAPGAHSLDDYKDDDDKEFGGGPQRVAAHITGTRGRSNTLSSPNSKNEKALGRKINSWESSRSGHSFLSNLHLRNGELVIHEKGFYYIYSQTYFRFQEEIKENTKNDKQMVQYIYKYTSYPDPILLMKSARNSCWSKDAEYGLYSIYQGGIFELKENDRIFVSVTNEHLIDMDHEASFFGAFLVGGGPQRVAAHITGTRGRSNTLSSPNSKNEKALGRKINSWESSRSGHSFLSNLHLRNGELVIHEKGFYYIYSQTYFRFQEEIKENTKNDKQMVQYIYKYTSYPDPILLMKSARNSCWSKDAEYGLYSIYQGGIFELKENDRIFVSVTNEHLIDMDHEASFFGAFLVGGGPQRVAAHITGTRGRSNTLSSPNSKNEKALGRKINSWESSRSGHSFLSNLHLRNGELVIHEKGFYYIYSQTYFRFQEEIKENTKNDKQMVQYIYKYTSYPDPILLMKSARNSCWSKDAEYGLYSIYQGGIFELKENDRIFVSVTNEHLIDMDHEASFFGAFLV
B9: scTRAIL3-FLVGGGPQRVA (designed binder)
chain: B8 chain 2
B10: Db anti-FAP-Glyco-scTRAIL3-FAVSGAA (antibody)
chain: MDWTWRVFCLLAVAPGAHSLEASDYKDDDDKGTGQVQLVQSGAEVKKPGASVKVSCKASGYTFTENIIHWVRQAPGQGLEWMGWFHPGSGSIKYNEKFKDRVTMTADTSTSTVYMELSSLRSEDTAVYYCARHGGTGRGAMDYWGQGTLVTVSSGGGGSDIQMTQSPSSLSASVGDRVTITCRASKSVSTSAYSYMHWYQQKPGKAPKLLIYLASNLESGVPSRFSGSGSGTDFTLTISSLQPEDFATYYCQHSRELPYTFGQGTKLEIKRAAAGNGTSNGTSEFGGAAAHITGTRGRSNTLSSPNSKNEKALGRKINSWESSRSGHSFLSNLHLRNGELVIHEKGFYYIYSQTYFRFQEEIKENTKNDKQMVQYIYKYTSYPDPILLMKSARNSCWSKDAEYGLYSIYQGGIFELKENDRIFVSVTNEHLIDMDHEASFFGAFAVSGAAAHITGTRGRSNTLSSPNSKNEKALGRKINSWESSRSGHSFLSNLHLRNGELVIHEKGFYYIYSQTYFRFQEEIKENTKNDKQMVQYIYKYTSYPDPILLMKSARNSCWSKDAEYGLYSIYQGGIFELKENDRIFVSVTNEHLIDMDHEASFFGAFAVSGAAAHITGTRGRSNTLSSPNSKNEKALGRKINSWESSRSGHSFLSNLHLRNGELVIHEKGFYYIYSQTYFRFQEEIKENTKNDKQMVQYIYKYTSYPDPILLMKSARNSCWSKDAEYGLYSIYQGGIFELKENDRIFVSVTNEHLIDMDHEASFFGAFAVS

target: T1, EGFR (human, UniProt P00533); assay: FACS, Colo205 cells

| EC50 [nM] | Binder |
| --- | --- |
| 0.58 | B1 |
| 0.87 | B2 |
| 0.86 | B3 |

target: T1, EGFR; assay: ELISA

| EC50 [nM] | Binder |
| --- | --- |
| 1.25 | B1 |
| 0.77 | B2 |
| 0.98 | B3 |

target: T2, HER3 (human, UniProt P21860); assay: FACS, Colo205 cells

| EC50 [nM] | Binder |
| --- | --- |
| 32.5 | B4 |
| 19.9 | B5 |
| 13.1 | B6 |
| 10.4 | B7 |

target: T3, TRAIL-R2 (DR5) (human, UniProt O14763); assay: ELISA

| EC50 [nM] | Binder |
| --- | --- |
| 2.83 | B4 |
| 1.94 | B8 |
| 1.74 | B9 |
| 1.82 | B1 |
| 0.79 | B2 |
| 1.29 | B3 |

target: FAP (human, UniProt Q12884); assay: FACS, HT1080 FAP+ cells
Sequence (Q12884 26-760): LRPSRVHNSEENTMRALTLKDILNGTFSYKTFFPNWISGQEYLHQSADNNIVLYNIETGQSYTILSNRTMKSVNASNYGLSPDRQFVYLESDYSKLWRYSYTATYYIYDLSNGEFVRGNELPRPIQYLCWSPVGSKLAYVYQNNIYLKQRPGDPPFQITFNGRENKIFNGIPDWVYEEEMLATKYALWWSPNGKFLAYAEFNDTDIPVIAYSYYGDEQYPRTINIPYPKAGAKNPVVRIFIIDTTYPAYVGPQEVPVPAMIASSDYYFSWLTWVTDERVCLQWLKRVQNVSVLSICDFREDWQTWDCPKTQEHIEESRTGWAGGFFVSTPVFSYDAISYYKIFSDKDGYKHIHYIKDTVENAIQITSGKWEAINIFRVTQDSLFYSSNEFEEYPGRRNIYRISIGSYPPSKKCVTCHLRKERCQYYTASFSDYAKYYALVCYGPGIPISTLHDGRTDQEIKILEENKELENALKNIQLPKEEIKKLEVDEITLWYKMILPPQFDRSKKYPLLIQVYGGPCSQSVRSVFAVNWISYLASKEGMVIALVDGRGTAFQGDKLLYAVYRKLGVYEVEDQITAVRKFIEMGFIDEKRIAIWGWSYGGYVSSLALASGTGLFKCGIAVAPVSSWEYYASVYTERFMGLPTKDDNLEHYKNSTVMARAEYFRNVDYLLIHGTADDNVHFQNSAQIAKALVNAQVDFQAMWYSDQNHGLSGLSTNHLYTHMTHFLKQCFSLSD

| EC50 [nM] | Binder |
| --- | --- |
| 14 | B10 |

target: T2, HER3; assay: ELISA

| EC50 [nM] | Binder |
| --- | --- |
| 8.54 | B4 |
| 11.6 | B5 |
| 5.88 | B7 |

target: T3, TRAIL-R2 (DR5); assay: FACS, Colo205 cells

| EC50 [nM] | Binder |
| --- | --- |
| > 100 | B8 |
| 5.67 | B9 |
